Earlier results on two substances are cited in paper PMC7843923.

The target of one data set is Unc5D (UniProt Q6UXZ4).
For the next data set, the target named is Latrophilin3 (UniProt Q9HAR2).
Chain of UniProt Q9HAR2 (Q9HAR2 20-862): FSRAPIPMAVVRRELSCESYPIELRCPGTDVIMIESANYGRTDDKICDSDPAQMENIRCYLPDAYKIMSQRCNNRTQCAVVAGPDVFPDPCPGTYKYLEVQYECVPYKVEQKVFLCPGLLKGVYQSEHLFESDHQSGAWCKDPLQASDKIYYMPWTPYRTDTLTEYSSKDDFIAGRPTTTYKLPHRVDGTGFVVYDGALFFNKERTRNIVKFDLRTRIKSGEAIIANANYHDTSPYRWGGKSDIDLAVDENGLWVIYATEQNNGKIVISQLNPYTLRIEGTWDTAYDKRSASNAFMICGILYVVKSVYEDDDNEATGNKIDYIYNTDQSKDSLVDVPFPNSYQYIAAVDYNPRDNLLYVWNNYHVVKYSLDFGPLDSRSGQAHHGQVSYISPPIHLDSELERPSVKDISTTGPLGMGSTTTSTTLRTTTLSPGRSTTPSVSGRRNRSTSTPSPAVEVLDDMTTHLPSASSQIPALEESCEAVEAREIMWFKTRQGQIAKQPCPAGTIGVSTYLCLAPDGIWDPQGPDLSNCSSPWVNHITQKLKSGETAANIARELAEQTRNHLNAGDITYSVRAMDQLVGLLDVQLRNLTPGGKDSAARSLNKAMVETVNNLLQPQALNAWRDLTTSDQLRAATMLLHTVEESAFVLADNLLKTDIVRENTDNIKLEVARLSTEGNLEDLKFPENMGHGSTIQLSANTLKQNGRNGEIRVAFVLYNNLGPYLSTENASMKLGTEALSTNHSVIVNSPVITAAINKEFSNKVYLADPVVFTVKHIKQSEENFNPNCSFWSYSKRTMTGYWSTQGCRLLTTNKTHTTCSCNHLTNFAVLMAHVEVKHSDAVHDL

Chain of UniProt Q6UXZ4 (Q6UXZ4 33-379): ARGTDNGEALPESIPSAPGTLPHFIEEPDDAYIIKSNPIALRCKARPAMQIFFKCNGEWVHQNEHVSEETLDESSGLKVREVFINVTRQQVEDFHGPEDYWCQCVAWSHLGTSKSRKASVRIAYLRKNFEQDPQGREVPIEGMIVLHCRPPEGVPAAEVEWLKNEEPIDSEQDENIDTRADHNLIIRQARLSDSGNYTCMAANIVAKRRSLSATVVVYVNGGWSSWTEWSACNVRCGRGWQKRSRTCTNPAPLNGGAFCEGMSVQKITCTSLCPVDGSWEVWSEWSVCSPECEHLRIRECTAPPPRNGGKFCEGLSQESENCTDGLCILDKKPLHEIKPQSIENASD

Consider FLRT2 (from UniProt O43155), for which, in the data set with Unc5D, the Kd was 310 nM.

On to FLRT (from UniProt Q9NZU0), for which the Kd with Latrophilin3 is 40 nM.
